Test results from patent publication US20230037911A1.
pEC50: −log10 of the molar value.

How the values were obtained:
[1] = target: recombinant human TIGIT extra cellular domain (ECD) protein (human) (UniProt Q495A1); test: ELISA on recombinant human TIGIT ECD
[2] = target: human TIGIT stably expressed on cells (Jurkat; 293T) (human) (UniProt Q495A1); test: whole cell binding, flow cytometry, n=3
[3] = target: human TIGIT stably expressed on cells (Jurkat; 293T) (human) (UniProt Q495A1); test: cell-based or functional assay
[4] = target: recombinant cynomolgus TIGIT (cyno-TIGIT ECD) (cynomolgus monkey); test: ELISA on recombinant cyno-TIGIT
Sequence of recombinant cynomolgus TIGIT (cyno-TIGIT ECD) (cynomolgus monkey) (chain, as listed by the source): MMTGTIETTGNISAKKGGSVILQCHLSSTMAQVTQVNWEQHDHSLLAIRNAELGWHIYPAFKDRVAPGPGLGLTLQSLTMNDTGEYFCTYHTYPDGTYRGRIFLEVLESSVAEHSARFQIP

[5] = target: human TIGIT stably expressed on cells (Jurkat; 293T) (human) (UniProt Q495A1); test: flow cytometry (CytoFlex), whole cell binding on h-TIGIT cells; representative of three experiments
[6] = target: recombinant mouse-TIGIT (mouse) (UniProt P86176); test: ELISA on recombinant mouse-TIGIT
Sequence of recombinant mouse-TIGIT (mouse) (P86176 29-148 limits assumed): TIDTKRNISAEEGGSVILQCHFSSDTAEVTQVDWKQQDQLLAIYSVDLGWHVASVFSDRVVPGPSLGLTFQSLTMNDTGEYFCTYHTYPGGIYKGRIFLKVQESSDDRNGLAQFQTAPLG

Sequence of human TIGIT stably expressed on cells (Jurkat; 293T) (human) (Q495A1 22-244 limits assumed): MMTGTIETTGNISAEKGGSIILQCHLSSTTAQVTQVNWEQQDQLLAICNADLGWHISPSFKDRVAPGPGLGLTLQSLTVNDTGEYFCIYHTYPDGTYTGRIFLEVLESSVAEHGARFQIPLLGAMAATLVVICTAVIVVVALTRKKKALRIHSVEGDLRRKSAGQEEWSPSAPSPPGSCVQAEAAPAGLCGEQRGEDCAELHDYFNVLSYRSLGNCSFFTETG
Sequence of recombinant human TIGIT extra cellular domain (ECD) protein (human) (Q495A1 22-138 limits assumed): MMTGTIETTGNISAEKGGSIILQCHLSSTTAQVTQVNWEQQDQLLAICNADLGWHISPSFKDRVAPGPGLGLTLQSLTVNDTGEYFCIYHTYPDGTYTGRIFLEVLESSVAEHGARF

EC50 (read off the curve) [1]	pEC50 [2]	EC50, TIGIT blockade NFAT luciferase reporter assay [3]	EC50 (read off the curve) [4]	EC50 (read off the curve) [5]	EC50 (read off the curve) [6]	Substance
0.1 µg/mL	9.21	0.72 nM	0.1 µg/mL	0.5 nM	–	Reference Ab 2 (reference anti-human-TIGIT antibody with the amino acid sequences of Tiragolumab, U.S. 2017/0088613 A1)
–	–	–	–	–	0.08 µg/mL	anti-mouse TIGIT reference antibody (Biolegend #142101)
